± gives the standard deviation of the averaged measurements.
test system: ATP; experiment: switch fluorescence ratio, 500 uM ATP over buffer (Cy3 cluster intensity, sum of 5 cycles each) (fold (ratio)); higher = stronger signal-on switching upon ATP binding; sequences stand for … in TCGTCGGCAGCGTCAGATGTGTATAAGAGACAGTTTTTTTTTTTTTTTTTTTTTTTTT…TC; details: aptamer strand: ATP DNA aptamer (quencher-CACCTGGGGGAGTATTGCGGAGGAAGG + anchor), 100 nM annealed; ATP concentration: 500 uM
How it was run: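 Clusters carrying Cy3-labelled switching strands on a modified Illumina MiSeq flow-cell were annealed to 100 nM quencher-labelled ATP aptamer and imaged in selection buffer. They were imaged again after 15 min with 500 uM ATP at 22 °C, over five buffer/ATP cycles with NaOH stripping and re-annealing in between. For each cluster, the fluorescence ratio is the summed Cy3 intensity of the target cycles divided by that of the buffer cycles, averaged per switch-domain sequence. Clusters outside 100-1000 RFU were left out.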
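Also: ATP exposure 15 min at 22 °C before imaging.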

In order of rising switch fluorescence ratio:
1. TTGGATGTGT  0.9407 ± 0.001
2. TTGATCTCAT  0.9479 ± 0.0076
3. TTGGACTGGG  0.948 ± 0.082
4. TTGAGATGGT  0.954 ± 0.017
5. TTGATTGGCC  0.958 ± 0.018
6. TTGGGGAAGC  0.958 ± 0.002
7. TTGGAGGTGG  0.959 ± 0.031
8. TTGACGTGTG  0.961 ± 0.01
9. TTGCATGATG  0.9611 ± 0.0076
10. TTGGTAGAGT  0.965 ± 0.04
11. TTGAATAGTG  0.966 ± 0.029
12. TTGCCTGTTT  0.967 ± 0.049
13. TTGGGAGGTT  0.968 ± 0.025
14. TTGGAAGTAG  0.9688 ± 0.0029
15. TTGATGCGGA  0.971 ± 0.05
16. TTGATTGCTT  0.9717 ± 0.0011
17. TTGGCCTATA  0.973 ± 0.021
18. TTGATATATA  0.974 ± 0.018
19. TTGCGGCTGG  0.974 ± 0.031
20. TTGGGCGAGC  0.9736 ± 0.0045
21. TTGAATTTGT  0.975 ± 0.023
22. TTGCTGTGAG  0.9762 ± 0.0012
23. TTGATGGTAA  0.977 ± 0.022
24. TTGGGAGCGG  0.9769 ± 0.0038
25. TTGGGGTCCG  0.977 ± 0.053
26. TTGAGTCATG  0.978 ± 0.047
27. TTGGGACTGT  0.978 ± 0.054
28. TTGACACTCG  0.98 ± 0.021
29. TTGAGATTGC  0.98 ± 0.027
30. TTGATATGGA  0.98 ± 0.022
31. TTGAGCTGTT  0.981 ± 0.033
32. TTGAGTTACT  0.981 ± 0.063
33. TTGATATATT  0.981 ± 0.017
34. TTGATTCATA  0.98126 ± 0.00011
35. TTGGGAAGAT  0.981 ± 0.018
36. TTGATATCTA  0.982 ± 0.049
37. TTGGGAAGGT  0.982 ± 0.049
38. TTGGGGGACG  0.982 ± 0.048
39. TTGCTTCAAT  0.983 ± 0.045
40. TTGGACTACT  0.984 ± 0.035
41. TTGGAGGCGG  0.984 ± 0.066
42. TTGAGTTCGG  0.986 ± 0.015
43. TTGGGTTTGG  0.986 ± 0.015
44. TTGACGTATT  0.9874 ± 0.006
45. TTGAGGTATA  0.987 ± 0.025
46. TTGAGTACTT  0.988 ± 0.025
47. TTGATGGGAT  0.988 ± 0.052
48. TTGCTTTAAT  0.988 ± 0.019
49. TTGGTATATA  0.9879 ± 0.0069
50. TTGGCATGGG  0.99 ± 0.015
51. TTGGTACGGC  0.99 ± 0.037
52. TTGACTTTTT  0.991 ± 0.016
53. TTGGGGAGAG  0.991 ± 0.01
54. TTGATGTTGG  0.992 ± 0.048
55. TTGCGTTGTG  0.992 ± 0.041
56. TTGGGTCGGA  0.992 ± 0.029
57. TTGCGTATTT  0.993 ± 0.033
58. TTGGGGCGTT  0.993 ± 0.057
59. TTGGGTAGTG  0.993 ± 0.031
60. TTGGGTCCTT  0.993 ± 0.026
61. TTGAGTTTGA  0.994 ± 0.011
62. TTGCTGGGCG  0.995 ± 0.026
63. TTGGCGTCGT  0.995 ± 0.043
64. TTGGGAAAGT  0.995 ± 0.017
65. TTGAGGGGCG  0.996 ± 0.044
66. TTGGGTAGCT  0.996 ± 0.043
67. TTGAGTGGTC  0.997 ± 0.016
68. TTGGGTAGCA  0.9968 ± 0.0098
69. TTGGGTATGG  0.997 ± 0.018
70. TTGGGTGTTG  0.997 ± 0.037
71. TTGAACGAGA  0.998 ± 0.019
72. TTGCTTGTGT  0.9983 ± 0.0049
73. TTGGCTATTT  0.9981 ± 0.0075
74. TTGGGGATAT  0.998 ± 0.039
75. TTGATATAGT  0.9993 ± 0.0073
76. TTGGACATTT  0.999 ± 0.013
77. TTGGGTTTAT  0.999 ± 0.017
78. TTGAAATTT  1.001 ± 0.003
79. TTGATTGATA  1 ± 0.028
80. TTGATTGGTA  1 ± 0.041
81. TTGATTTCGT  0.9998 ± 0.0024
82. TTGCATTTAA  1.0047 ± 0.00053
83. TTGCCAAGGT  1 ± 0.013
84. TTGCCTGAAA  1 ± 0.019
85. TTGCGAGTTG  1 ± 0.021
86. TTGCTAATCA  1 ± 0.04
87. TTGCTCATAA  1 ± 0.032
88. TTGCTGGATT  1 ± 0.033
89. TTGCTGGCGG  1 ± 0.038
90. TTGGAAGTTC  1 ± 0.019
91. TTGGAATTGT  1.005 ± 0.0075
92. TTGGCTTAGA  1.001 ± 0.01
93. TTGGGGAATT  1 ± 0.019
94. TTGGGGGGGT  1 ± 0.03
95. TTGGGGTCCC  1 ± 0.037
96. TTGGTACCGC  1 ± 0.048
97. TTGGTATGTA  1 ± 0.018
98. TTGAACGGGA  1.01 ± 0.044
99. TTGACAGAGT  1.01 ± 0.028
100. TTGAGATCGG  1.01 ± 0.05
101. TTGAGATTCG  1.01 ± 0.031
102. TTGAGCCA  1.01 ± 0.025
103. TTGAGCTAGG  1.01 ± 0.023
104. TTGATGGGTA  1.01 ± 0.032
105. TTGATGTGCT  1.01 ± 0.013
106. TTGATTCAGC  1.01 ± 0.012
107. TTGATTCATT  1.01 ± 0.025
108. TTGCATCTTG  1.01 ± 0.033
109. TTGCGGAGGA  1.01 ± 0.043
110. TTGCGGGTGG  1.01 ± 0.028
111. TTGCTAGGGC  1.01 ± 0.033
112. TTGCTGGGGT  1.01 ± 0.044
113. TTGCTTGCGT  1.01 ± 0.03
114. TTGGAAGCAT  1.01 ± 0.036
115. TTGGCCGGGG  1.01 ± 0.029
116. TTGGGGATGG  1.01 ± 0.047
117. TTGGGGGACT  1.01 ± 0.042
118. TTGGGGGGAA  1.01 ± 0.025
119. TTGGGTATGT  1.01 ± 0.038
120. TTGGGTCATA  1.01 ± 0.039
121. TTGGTAATCC  1.011 ± 0.0026
122. TTGGTACGGG  1.01 ± 0.047
123. TTGAAATATT  1.02 ± 0.013
124. TTGAGAATT  1.02 ± 0.051
125. TTGAGGAATG  1.02 ± 0.018
126. TTGCGCGGGA  1.02 ± 0.072
127. TTGGAACGGG  1.02 ± 0.011
128. TTGGAATTCA  1.02 ± 0.071
129. TTGGACCCAT  1.02 ± 0.02
130. TTGGACGGGT  1.022 ± 0.008
131. TTGGCCACGC  1.018 ± 0.0056
132. TTGGGCAAGG  1.02 ± 0.026
133. TTGGGCCCGT  1.02 ± 0.075
134. TTGGGGGCAT  1.02 ± 0.052
135. TTGGGGGTCC  1.02 ± 0.038
136. TTGGGTAAGT  1.016 ± 0.0059
137. TTGGGTATAG  1.02 ± 0.028
138. TTGAACTTGT  1.03 ± 0.028
139. TTGATATGGG  1.03 ± 0.11
140. TTGCGGGGGG  1.03 ± 0.032
141. TTGCTCGTGG  1.028 ± 0.0047
142. TTGCTGGCCG  1.03 ± 0.026
143. TTGGAGGCTC  1.03 ± 0.024
144. TTGGATAAAC  1.03 ± 0.053
145. TTGGGGGGTT  1.03 ± 0.066
146. TTGGGTTAGC  1.03 ± 0.037
147. TTGGTACTGC  1.03 ± 0.027
148. TTGATGGATG  1.04 ± 0.09
149. TTGATTACTC  1.04 ± 0.051
150. TTGCACGGTT  1.04 ± 0.06
151. TTGCCGGCTA  1.038 ± 0.0057
152. TTGCCTGTGT  1.039 ± 0.0012
153. TTGCTGTACG  1.04 ± 0.021
154. TTGGAATTCT  1.04 ± 0.081
155. TTGGCGGGGT  1.04 ± 0.081
156. TTGGGATAAC  1.04 ± 0.058
157. TTGGGGAAGG  1.04 ± 0.034
158. TTGGGGGCCT  1.04 ± 0.06
159. TTGGGGGCGA  1.036 ± 0.0035
160. TTGGGGTTCT  1.04 ± 0.033
161. TTGGGTGGCG  1.04 ± 0.12
162. TTGGGTTCCT  1.04 ± 0.11
163. TTGAACGCGG  1.05 ± 0.018
164. TTGACCTGGT  1.05 ± 0.053
165. TTGCACCATT  1.05 ± 0.12
166. TTGCATGGGC  1.05 ± 0.063
167. TTGCCTCGTT  1.05 ± 0.023
168. TTGCGTGTGG  1.048 ± 0.0046
169. TTGGGTCAAC  1.05 ± 0.014
170. TTGGACTAAA  1.06 ± 0.011
171. TTGGGGCAAA  1.06 ± 0.061
172. TTGCCACGGA  1.07 ± 0.051
173. TTGATGGTAC  1.0774 ± 0.00051
174. TTGCACGTAT  1.08 ± 0.056
175. TTGGGATGCC  1.08 ± 0.17
176. TTGAGCAGCG  1.09 ± 0.07
177. TTGGGGATTA  1.09 ± 0.18
178. TTGGAAAAAG  1.1 ± 0.18
179. TTGCAAATCG  1.11 ± 0.18
180. TTGGCTTACT  1.11 ± 0.11
181. TTGGGGTTAC  1.11 ± 0.16
182. TTGACCGGAA  1.14 ± 0.038
183. TTGCGACGCT  1.17 ± 0.13
184. TTGATGCTCT  1.21 ± 0.28
185. TTGACGCAGT  1.23 ± 0.03
186. TTGCAATTAT  1.26 ± 0.18
187. TTGCACGTTT  1.27 ± 0.19
188. TTGACAAGAT  1.28 ± 0.39
189. TTGAGGGCAT  1.29 ± 0.45
190. TTGCATATAG  1.3 ± 0.065
191. TTGCAAAACT  1.32 ± 0.51
192. TTGACGAAAT  1.41 ± 0.03
193. TTGAGCATAG  1.43 ± 0.44
194. TTGGGGCATA  1.43 ± 0.77
195. TTGCGAAATC  1.44 ± 0.58
196. TTGAGAATAC  1.62 ± 0.68
197. TTGAAGGTGC  1.69 ± 0.43
198. TTGAAATCTT  1.78 ± 1
199. TTGGACGCAC  2.08 ± 0.12
200. TTGCGCGGAC  2.34 ± 1.5
